{
  "source": "paper PMC7229824",
  "about": "(Nucleic Acids Research, 2020)",
  "binders": {"B1": {"name": "His-HMGA2 (natural protein)", "chain": "MSARGEGAGQPSTSAQGQPAAPAPQKRGRGRPRKQQQEPTGEPSPKRPRGRPKGSKNKSPSKAAQKKAEATGEKRPRGRPRKWPQQVVQKKPAQEETEETSSQESAEED"}},
  "molecular_target": "GST-PCAF (human, UniProt Q92831 1-832)",
  "sequence (Q92831 whole entry)": "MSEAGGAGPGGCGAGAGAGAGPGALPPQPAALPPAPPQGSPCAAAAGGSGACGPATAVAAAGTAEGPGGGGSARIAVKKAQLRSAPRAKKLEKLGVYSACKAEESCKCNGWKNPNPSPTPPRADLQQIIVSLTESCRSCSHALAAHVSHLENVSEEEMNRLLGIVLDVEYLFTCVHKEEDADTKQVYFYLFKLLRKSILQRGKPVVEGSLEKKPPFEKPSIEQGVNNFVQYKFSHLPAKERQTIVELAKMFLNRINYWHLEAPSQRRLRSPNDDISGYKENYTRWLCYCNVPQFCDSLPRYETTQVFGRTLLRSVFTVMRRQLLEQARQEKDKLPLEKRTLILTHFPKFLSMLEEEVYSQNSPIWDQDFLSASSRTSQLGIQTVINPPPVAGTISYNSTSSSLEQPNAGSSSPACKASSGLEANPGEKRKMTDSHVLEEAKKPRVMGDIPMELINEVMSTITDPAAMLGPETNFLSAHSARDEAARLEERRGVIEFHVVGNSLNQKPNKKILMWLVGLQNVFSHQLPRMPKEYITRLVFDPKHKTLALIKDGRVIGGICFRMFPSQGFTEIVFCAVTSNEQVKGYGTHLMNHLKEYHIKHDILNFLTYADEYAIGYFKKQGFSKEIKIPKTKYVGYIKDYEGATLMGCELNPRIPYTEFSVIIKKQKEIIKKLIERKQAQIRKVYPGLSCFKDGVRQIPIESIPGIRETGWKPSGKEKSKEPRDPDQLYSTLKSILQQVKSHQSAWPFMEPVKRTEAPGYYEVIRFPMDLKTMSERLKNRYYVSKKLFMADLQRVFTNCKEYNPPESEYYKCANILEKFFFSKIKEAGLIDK",
  "assay": "pull-down",
  "data": [
    {"binder": "B1", "values": [
      {"measurement": "binding result", "value": "binds"}
    ]}
  ]
}
